Source: IntAct's records for PubMed 39009827

B1: BCL11 transcription factor A (Homo sapiens), Q9H165 (parent)
chain: MSRRKQGKPQHLSKREFSPEPLEAILTDDEPDHGPLGAPEGDHDLLTCGQCQMNFPLGDILIFIEHKRKQCNGSLCLEKAVDKPPSPSPIEMKKASNPVEVGIQVTPEDDDCLSTSSRGICPKQEHIADKLLHWRGLSSPRSAHGALIPTPGMSAEYAPQGICKDEPSSYTCTTCKQPFTSAWFLLQHAQNTHGLRIYLESEHGSPLTPRVGIPSGLGAECPSQPPLHGIHIADNNPFNLLRIPGSVSREASGLAEGRFPPTPPLFSPPPRHHLDPHRIERLGAEEMALATHHPSAFDRVLRLNPMAMEPPAMDFSRRLRELAGNTSSPPLSPGRPSPMQRLLQPFQPGSKPPFLATPPLPPLQSAPPPSQPPVKSKSCEFCGKTFKFQSNLVVHRRSHTGEKPYKCNLCDHACTQASKLKRHMKTHMHKSSPMTVKSDDGLSTASSPEPGTSDLVGSASSALKSVVAKFKSENDPNLIPENGDEEEEEDDEEEEEEEEEEEEELTESERVDYGFGLSLEAARHHENSSRGAVVGVGDESRALPDVMQGMVLSSMQHFSEAFHQVLGEKHKRGHLAEAEGHRDTCDEDSVAGESDRIDDGTVNGRGCSPGESASGGLSKKLLLGSPSSLSPFSKRIKLEKEFDLPPAAMPNTENVYSQWLAGYAASRQLKDPFLSFGDSRQSPFASSSEHSSENGSLRFSTPPGELDGGISGRSGTGSGGSTPHISGPGPGRPSSKEGRRSDTCEYCGKVFKNCSNLTVHRRSHTGERPYKCELCNYACAQSSKLTRHMKTHGQVGKDVYKCEICKMPFSVYSTLEKHMKKWHSDRVLNNDIKTE
partner: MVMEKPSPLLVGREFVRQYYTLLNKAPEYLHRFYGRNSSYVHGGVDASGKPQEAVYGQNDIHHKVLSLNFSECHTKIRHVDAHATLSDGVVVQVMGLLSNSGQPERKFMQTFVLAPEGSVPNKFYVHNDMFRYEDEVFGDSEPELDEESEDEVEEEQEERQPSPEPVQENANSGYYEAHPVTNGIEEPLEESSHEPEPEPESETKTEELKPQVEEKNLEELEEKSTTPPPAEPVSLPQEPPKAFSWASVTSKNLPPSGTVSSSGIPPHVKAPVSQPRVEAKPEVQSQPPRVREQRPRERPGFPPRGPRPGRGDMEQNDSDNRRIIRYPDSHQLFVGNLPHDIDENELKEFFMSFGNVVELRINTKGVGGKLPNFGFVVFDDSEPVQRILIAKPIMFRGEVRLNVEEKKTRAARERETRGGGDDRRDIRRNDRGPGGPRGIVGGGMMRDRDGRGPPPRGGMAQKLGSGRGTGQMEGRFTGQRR
B2: Keratin, type II cytoskeletal 1 (Homo sapiens), P04264 (parent)
chain: MSRQFSSRSGYRSGGGFSSGSAGIINYQRRTTSSSTRRSGGGGGRFSSCGGGGGSFGAGGGFGSRSLVNLGGSKSISISVARGGGRGSGFGGGYGGGGFGGGGFGGGGFGGGGIGGGGFGGFGSGGGGFGGGGFGGGGYGGGYGPVCPPGGIQEVTINQSLLQPLNVEIDPEIQKVKSREREQIKSLNNQFASFIDKVRFLEQQNQVLQTKWELLQQVDTSTRTHNLEPYFESFINNLRRRVDQLKSDQSRLDSELKNMQDMVEDYRNKYEDEINKRTNAENEFVTIKKDVDGAYMTKVDLQAKLDNLQQEIDFLTALYQAELSQMQTQISETNVILSMDNNRSLDLDSIIAEVKAQYEDIAQKSKAEAESLYQSKYEELQITAGRHGDSVRNSKIEISELNRVIQRLRSEIDNVKKQISNLQQSISDAEQRGENALKDAKNKLNDLEDALQQAKEDLARLLRDYQELMNTKLALDLEIATYRTLLEGEESRMSGECAPNVSVSVSTSHTTISGGGSRGGGGGGYGSGGSSYGSGGGSYGSGGGGGGGRGSYGSGGSSYGSGGGSYGSGGGGGGHGSYGSGSSSGGYRGGSGGGGGGSSGGRGSGGGSSGGSIGGRGSSSGGVKSSGGSSSVKFVSTTYSGVTR
B3: Myosin-9 (Homo sapiens), P35579 (parent)
chain: MAQQAADKYLYVDKNFINNPLAQADWAAKKLVWVPSDKSGFEPASLKEEVGEEAIVELVENGKKVKVNKDDIQKMNPPKFSKVEDMAELTCLNEASVLHNLKERYYSGLIYTYSGLFCVVINPYKNLPIYSEEIVEMYKGKKRHEMPPHIYAITDTAYRSMMQDREDQSILCTGESGAGKTENTKKVIQYLAYVASSHKSKKDQGELERQLLQANPILEAFGNAKTVKNDNSSRFGKFIRINFDVNGYIVGANIETYLLEKSRAIRQAKEERTFHIFYYLLSGAGEHLKTDLLLEPYNKYRFLSNGHVTIPGQQDKDMFQETMEAMRIMGIPEEEQMGLLRVISGVLQLGNIVFKKERNTDQASMPDNTAAQKVSHLLGINVTDFTRGILTPRIKVGRDYVQKAQTKEQADFAIEALAKATYERMFRWLVLRINKALDKTKRQGASFIGILDIAGFEIFDLNSFEQLCINYTNEKLQQLFNHTMFILEQEEYQREGIEWNFIDFGLDLQPCIDLIEKPAGPPGILALLDEECWFPKATDKSFVEKVMQEQGTHPKFQKPKQLKDKADFCIIHYAGKVDYKADEWLMKNMDPLNDNIATLLHQSSDKFVSELWKDVDRIIGLDQVAGMSETALPGAFKTRKGMFRTVGQLYKEQLAKLMATLRNTNPNFVRCIIPNHEKKAGKLDPHLVLDQLRCNGVLEGIRICRQGFPNRVVFQEFRQRYEILTPNSIPKGFMDGKQACVLMIKALELDSNLYRIGQSKVFFRAGVLAHLEEERDLKITDVIIGFQACCRGYLARKAFAKRQQQLTAMKVLQRNCAAYLKLRNWQWWRLFTKVKPLLQVSRQEEEMMAKEEELVKVREKQLAAENRLTEMETLQSQLMAEKLQLQEQLQAETELCAEAEELRARLTAKKQELEEICHDLEARVEEEEERCQHLQAEKKKMQQNIQELEEQLEEEESARQKLQLEKVTTEAKLKKLEEEQIILEDQNCKLAKEKKLLEDRIAEFTTNLTEEEEKSKSLAKLKNKHEAMITDLEERLRREEKQRQELEKTRRKLEGDSTDLSDQIAELQAQIAELKMQLAKKEEELQAALARVEEEAAQKNMALKKIRELESQISELQEDLESERASRNKAEKQKRDLGEELEALKTELEDTLDSTAAQQELRSKREQEVNILKKTLEEEAKTHEAQIQEMRQKHSQAVEELAEQLEQTKRVKANLEKAKQTLENERGELANEVKVLLQGKGDSEHKRKKVEAQLQELQVKFNEGERVRTELADKVTKLQVELDNVTGLLSQSDSKSSKLTKDFSALESQLQDTQELLQEENRQKLSLSTKLKQVEDEKNSFREQLEEEEEAKHNLEKQIATLHAQVADMKKKMEDSVGCLETAEEVKRKLQKDLEGLSQRHEEKVAAYDKLEKTKTRLQQELDDLLVDLDHQRQSACNLEKKQKKFDQLLAEEKTISAKYAEERDRAEAEAREKETKALSLARALEEAMEQKAELERLNKQFRTEMEDLMSSKDDVGKSVHELEKSKRALEQQVEEMKTQLEELEDELQATEDAKLRLEVNLQAMKAQFERDLQGRDEQSEEKKKQLVRQVREMEAELEDERKQRSMAVAARKKLEMDLKDLEAHIDSANKNRDEAIKQLRKLQAQMKDCMRELDDTRASREEILAQAKENEKKLKSMEAEMIQLQEELAAAERAKRQAQQERDELADEIANSSGKGALALEEKRRLEARIAQLEEELEEEQGNTELINDRLKKANLQIDQINTDLNLERSHAQKNENARQQLERQNKELKVKLQEMEGTVKSKYKASITALEAKIAQLEEQLDNETKERQAACKQVRRTEKKLKDVLLQVDDERRNAEQYKDQADKASTRLKQLKRQLEEAEEEAQRANASRRKLQRELEDATETADAMNREVSSLKNKLRRGDLPFVVPRRMARKGAGDGSDEEVDGKADGAEAKPAE
partner: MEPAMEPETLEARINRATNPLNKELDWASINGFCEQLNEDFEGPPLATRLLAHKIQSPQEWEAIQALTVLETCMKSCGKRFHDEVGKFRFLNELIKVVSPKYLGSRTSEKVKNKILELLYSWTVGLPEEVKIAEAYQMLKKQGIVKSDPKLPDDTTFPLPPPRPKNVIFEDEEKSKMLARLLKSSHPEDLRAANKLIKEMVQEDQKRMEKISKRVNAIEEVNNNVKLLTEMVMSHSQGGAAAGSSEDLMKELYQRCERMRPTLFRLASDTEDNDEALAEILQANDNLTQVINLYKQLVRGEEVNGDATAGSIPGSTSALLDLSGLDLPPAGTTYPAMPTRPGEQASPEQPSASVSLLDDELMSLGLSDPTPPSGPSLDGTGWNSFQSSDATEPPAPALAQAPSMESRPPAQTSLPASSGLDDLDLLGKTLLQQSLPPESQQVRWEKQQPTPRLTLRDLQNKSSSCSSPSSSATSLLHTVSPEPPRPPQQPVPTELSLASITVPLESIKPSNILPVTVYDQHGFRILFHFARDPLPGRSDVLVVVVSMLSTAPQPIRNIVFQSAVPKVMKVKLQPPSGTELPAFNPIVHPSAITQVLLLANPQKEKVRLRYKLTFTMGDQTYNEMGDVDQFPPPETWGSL

Variants of: B1
Settings: with G3BP2, Q9UN86

effect of a mutation on the interaction	Variant
causing an interaction	C48F

Variants of: B2
Settings: with mlp3a_human MAP1LC3A

effect of a mutation on the interaction	Variant
disrupting interaction strength	L214P

Variants of: B3
Settings: with gga1_human GGA1, Q9UJY5

effect of a mutation on the interaction	Variant
decreasing interaction strength	D1424H
